Data set [1] concerns the target BiP double-mutant G518C and Y636C labelled with AlexaFluor 555 and AlexaFluor 647 (UniProt P20029). Nature of the data set: other fluorescence titration.
Data set [2] addresses FITC-labeled BiP-NBD (D27C variant) (UniProt P20029). Kind of data set: fluorescence polarisation.
The data set “cross-linking” deals with the molecule itself. Nature of the data set: cross-linking.

In the case of “Mouse E-peptide containing an N-terminal six-histidine tag and S95C mutation (domain or fragment)”, the dissociation constant (Kd) in data set [1] was found to be 130 nM.

For “M86C cross-linked Grp94 (from UniProt P08113 72-765) (natural protein)”, the fold affinity enhancement versus wild-type Grp94 in data set [2] is 50 fold.

“Wild-type mouse Grp94 (72 to 765) (from UniProt P08113 72-765) (natural protein)” had a dissociation constant (Kd) in data set [2] of 950 nM.

B1: Grp94 M86C (natural protein, mouse, UniProt P08113 72-765, looked up)
chain: KSEKFAFQAEVNRMCKLIINSLYKNKEIFLRELISNASDALDKIRLISLTDENALAGNEELTVKIKCDKEKNLLHVTDTGVGMTREELVKNLGTIAKSGTSEFLNKMTEAQEDGQSTSELIGQFGVGFYSAFLVADKVIVTSKHNNDTQHIWESDSNEFSVIADPRGNTLGRGTTITLVLKEEASDYLELDTIKNLVRKYSQFINFPIYVWSSKTETVEEPLEEDEAAKEEKEESDDEAAVEEEEEEKKPKTKKVEKTVWDWELMNDIKPIWQRPSKEVEEDEYKAFYKSFSKESDDPMAYIHFTAEGEVTFKSILFVPTSAPRGLFDEYGSKKSDYIKLYVRRVFITDDFHDMMPKYLNFVKGVVDSDDLPLNVSRETLQQHKLLKVIRKKLVRKTLDMIKKIADEKYNDTFWKEFGTNIKLGVIEDHSNRTRLAKLLRFQSSHHSTDITSLDQYVERMKEKQDKIYFMAGSSRKEAESSPFVERLLKKGYEVIYLTEPVDEYCIQALPEFDGKRFQNVAKEGVKFDESEKTKESREATEKEFEPLLNWMKDKALKDKIEKAVVSQRLTESPCALVASQYGWSGNMERIMKAQAYQTGKDISTNYYASQKKTFEINPRHPLIRDMLRRIKEDEDDKTVMDLAVVLFETATLRSGYLLPDTKAYGDRIERMLRLSLNIDPEAQVEEEPEEEPED
Consider B1, for which the binding result in “cross-linking” is listed as “binds”.

The term Kd denotes the concentration at which binding is half-saturated. High values mean a looser complex, low ones a tighter complex.
